# Assay results as given in article PMC6774396 (Frontiers in Immunology, 2019).
# Changes are numbered by the printed parent chain.
# B1: WT: wild-type human L-selectin, C-terminally tagged with GFP or RFP, expressed in THP-1 cells (protein)
# chain: WTYHYSEKPMNWQRARRFCRDNYTDLVAIQNKAEIEYLEKTLPFSRSYYWIGIRKIGGIWTWVGTNKSLTEEAENWGDGEPNNKKNKEDCVEIYIKRNKDAGKWNDDACHKLKAALCYTASCQPWSCSGHGECVEIINNYTCNCDVGYYGPQCQFVIQCEPLEAPELGTMDCTHPLGNFSFSSQCAFSCSEGTNLTGIEETTCGPFGNWSSPEPTCQVIQCEPLSAPDLGIMNCSHPLASFSFTSACTFICSEGTELIGKKKTICESSGIWSNPSPICQKLDKSFSMIKEGDYNPLFIPVAVMVTAFSGLAFIIWLARRLKKGKKSKRSMNDPY
# modifications: left off: eGFP (donor copy) or mCherry (acceptor copy, called RFP), C-terminal, kept
# B2: SSAA: L-selectin with Ser^364 and Ser^367 both mutated to alanines (protein)
# chain: B1 chain with S326A, S329A
# modifications: left off: eGFP (donor copy) or mCherry (acceptor copy, called RFP), C-terminal, kept
# Key:
# THP-1 cells = assay: Antibody-mediated clustering (AMC) of L-selectin-GFP/RFP, FLIM/FRET; assay type: cell-based, human; conditions: for change in FRET efficiency on AMC or versus comparator (in words) / FRET efficiency after AMC: DREG56 plus secondary antibody; for FRET efficiency after AMC: 10 min at 37°C, GFP/RFP pair
# Text: (A) Schematic representation of the cleavage site, transmembrane domain (TMD), and cytoplasmic tail of human L-selectin. Red underlined region of the cleavage site denotes the amino acids that are deleted in ΔM-N L-selectin. […] Red arrow points to the position of the cut site of the L-selectin cleavage domain. (B) Cells expressing matched levels of L-selectin-GFP/RFP in the following forms: WT, ΔM-N, SSAA, ΔM-N^SSAA, and R357A were subjected to AMC using Alexa Fluor 647-conjugated DREG56 or isotype-matched control, followed by goat anti-mouse secondary antibody (see Materials and Methods for more detail). Cells were plated onto poly-L-lysine-coated coverslips and prepared for FLIM/FRET analysis (see materials and methods). FLIM was used to measure the FRET efficiency between the GFP/RFP donor/acceptor pairs as a direct function of cytoplasmic tail clustering […]. At least 45 individual cells were analyzed over 3 independent clustering assays. (C) Representative images are shown for each cell line. The lifetime of fluorescence (Lftm) is expressed in a pseudocolour scale from red (low lifetime with a very high probability of interaction) to blue (high lifetime with a very low probability of interaction). […] Cells were lysed directly in protein loading buffer (containing the reducing agent, dithiothreitol) and resolved onto standard (lower panel) or phos-tag (upper panel) polyacrylamide gels. Antibodies to GFP and RFP were used to, respectively, probe ΔM-N and ΔM-N^SSAA on Western blots. […] Statistics: One-Way ANOVA Tukey's multiple comparison test. **p ≤ 0.01; ***p ≤ 0.001; ****p ≤ 0.0001.
# THP-1 cells were adjusted the night before AMC to a density of 0.5 ×10^6 cells per mL. On the same day, 13 mm diameter glass coverslips (thickness “1”) were placed into the base of a 24 well dish, spotted with 100 μL of poly-L-lysine (PLL) to immobilize according to manufacturer's instruction. On the day of the assay, THP-1 cells were counted and adjusted to a density of 1 ×10^6 per mL in 500 μL containing antibody labeling buffer (RPMI culture medium containing FcR block [Miltenyi Biotec]). Cells were labeled with 2 μg per mL DREG56 for 30 min at 4°C, followed by washing (by centrifugation at 300 g and resuspension) in ice cold culture media to remove excess unbound antibody and then incubated back in ice cold labeling buffer containing secondary antibody conjugated to Alexa Fluor […] (Thermo Fisher) for a further 30 min at 4°C. Cells were then washed twice in ice cold neat RPMI and resuspended to 100 μL of neat ice cold RPMI before 80 μL of the cell suspension was seeded onto 13 mm diameter glass coverslips (thickness = “1”), which were pre-coated with PLL-coated the night before. The seeded cells were placed into a humidified cell culture incubator at 37°C and 5% CO2 for 10 min to drive clustering. Adhered cells were flooded in excess 4% paraformaldehyde and fixed for 15 min at room temperature. Fixed coverslips were washed 3 times in PBS and then treated in 10 mg/mL of Sodium Borohydride dissolved in phosphate buffered saline for 10 min at room temperature (to eliminate autofluorescence and enhance signal to noise ratios). Coverslips were subsequently washed in PBS to remove sodium borohydride and mounted using DAKO mounting medium.
# FLIM measurement of FRET was performed with a multiphoton microscope system as described previously ([8], [23]). A Nikon TE2000E inverted microscope, combined with an in-house scanner and Chameleon Ti:Sapphire ultrafast pulsed multiphoton laser (Coherent Inc.), was used for excitation of GFP (at 890 nm). Fluorescence lifetime imaging capability was provided by time-correlated, single-photon counting electronics (SPC 700; Becker & Hickl). A 40 × objective (NA 1.3) was used throughout (CFI60 Plan Fluor; Nikon), and data were acquired at 500 ± 20 nm through a bandpass filter (35–5040; Coherent Inc.). […]
# [1] = test system: THP-1 cells over TNF-α-activated HUVEC; assay: Pseudopod protrusion scoring in TEM under flow; assay type: cell-based, human; conditions: for cells with 2 protrusions / cells with 0 protrusions: 15 min time point, mean of 3 fields of view per flow experiment, three occasions, at least 180 cells per group, % printed; for cells with 2 protrusions: significance ** S367A p ≤ 0.01 (Tukey); for cells with 0 protrusions: significance *** S367A p ≤ 0.001, ** SSAA p ≤ 0.01 (Tukey)
# Protocol: (A) The number of protrusions formed over this period was scored as: zero, one, two, or >2. (B) The percentages of cells bearing these protrusions were scored at specific time points: 6 min (blue bars), 15 min (green bars), or 25 min (red bars). Supplementary Videos 2, 3, 4 provide examples of cells producing a range of protrusions as TEM proceeds. Data represent SEM of 3 fields of view per flow experiment, conducted on three separate occasions, and at least 180 cells analyzed per group. Values of the vertical lines indicate the differences in protrusion number (specifically “zero” and “two”) corresponding to each of the cell lines, for which statistical significance is shown in Table 1.
# All flow experiments were performed using a 35 mm diameter Glycotech parallel plate flow chamber. Perfusion experiments were performed at 1.5 dyn/cm^2 using a Harvard Apparatus 2000 PHD syringe pump. Perfusion media consisted of: RPMI supplemented with L-glutamine, 10% FCS, 1% penicillin/streptomycin, 50 μM β-mercaptoethanol, and 25 mM HEPES. Human Umbilical Vein Endothelial Cells (HUVEC–Lonza) were seeded onto 35 mm diameter glass coverslips (no. 1 thickness; VWR) that were pre-coated with 10 μg/mL fibronectin (37°C for at least 1 h). Before each perfusion assay, HUVEC were stimulated overnight (16 h) with 10 ng/mL carrier-free recombinant human TNF-α (R&D Systems). Each perfusion assay was performed by injecting a bolus of cells for 6 min, followed by just perfusion media (without cells) for the […]. THP-1 cells were perfused at a density of 0.5 ×10^6 cells per mL. THP-1 cells treated with 10 μM TAPI-0 required a preincubation time of 10 min at 37°C before perfusion over TNF-α-activated HUVEC. Note that 10 μM TAPI-0 was also supplemented in the perfusate. Stills were acquired once every 10 seconds using 10 × objective lens.
# [2] = at least 45 cells, 3 independent assays
Molecule,change in FRET efficiency on AMC or versus comparator (in words) (THP-1 cells),FRET efficiency after AMC (THP-1 cells; [2]) [%],"FRET efficiency without AMC (THP-1 cells; WT L-selectin-GFP/RFP before AMC (isotype-matched control), at least 45 cells, 3 independent assays) [%]",cells with 2 protrusions [1] [%],cells with 0 protrusions [1],"protrusive activity profile in TEM (in words) ([1]; 6, 15 and 25 min of flow over TNF-α-activated HUVEC)"
B1,significantly increased the FRET efficiency,12.39,1.35,36.2,7.9%,
B2,modest but significant drop in FRET efficiency compared to WT L-selectin,9.25,,24.9,22.4^** %,phenocopied more the S367A than the S364A cell line
